Substitutions are numbered along the chain they refer to. Several values for one entry are separate records, joined by “and”; a condition that tells them apart may be missing. Equal entries are not always repeated. Where two headings read alike, the source gives them in different places. Values belong to the molecule of their own block, whether it stands above or below them.
Key:
IL-18 [1] = target: T1, IL-18 (Homo sapiens, UniProt Q14116); assay: Luminex screening second step: biotinylated IL-18BP binding on IL-18 previously complexed to monoclonal antibody
T1 sequence (Q14116 37-193): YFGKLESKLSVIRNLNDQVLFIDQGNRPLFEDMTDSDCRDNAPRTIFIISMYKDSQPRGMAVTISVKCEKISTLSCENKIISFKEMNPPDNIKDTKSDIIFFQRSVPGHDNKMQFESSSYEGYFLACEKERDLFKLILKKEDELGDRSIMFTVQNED
Excerpt: Second step. Potential antibodies targeting IL-18 on IL-18BP binding site were rescreened in competition with IL-18BP, but not with IL-18BP fusions with Fc antibody domains, or other type of fusions, in order to prevent false antibody positive candidates due to steric hindrance created by the fused peptide. For this, monoclonal antibodies were bound to Luminex beads carrying IL-18. The complex was then exposed to biotinylated IL-18BP in order to identify interference to previously identified anti-IL-18 antibodies (see Table 7, Column #2).

[2] = target: T2, IL-18 previously complexed to IL-18BP (Homo sapiens, UniProt Q14116); assay: Luminex screening third step: monoclonal antibody binding on IL-18 previously complexed to IL-18BP; conditions: for fluorescence signal after binding IL-18 in the presence of IL-18BP: third screening step
T2 sequence (Q14116 37-193): T1 sequence (Q14116 37-193)
T2 sequence (O95998 31-194 partner): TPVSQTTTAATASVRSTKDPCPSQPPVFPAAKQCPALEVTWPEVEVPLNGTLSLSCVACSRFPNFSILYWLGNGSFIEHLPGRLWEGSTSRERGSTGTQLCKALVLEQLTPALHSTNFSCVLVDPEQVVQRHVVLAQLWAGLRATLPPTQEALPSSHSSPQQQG
Excerpt: Third step. A third screening program was undertaken with Luminex beads linked to IL-18BP and then complexed to interleukin-18, assuring the presentation of properly folded recombinant IL-18 to positive antibody candidates.

human interleukin-18 = target: T3, human interleukin-18 (Homo sapiens, UniProt Q14116); assay: Luminex screening first step: monoclonal antibodies binding on IL-18; conditions: IL-18 attached to Luminex beads
T3 sequence (Q14116 37-193): T1 sequence (Q14116 37-193)
Excerpt: Mice were vaccinated against human interleukin-18 using a technology allowing immunization with properly folded proteins. Prior to immunization, genetically modified mice were selected for major histocompatibility complexes supposedly sensitive to IL-18 surface area epitopes binding IL-18BP. Following immunization, B cells were isolated from spleen and hybridized following standard hybridoma technology. Hybridoma were sorted onto microplates and then tested for expression of monoclonal anti-IL-18 antibodies targeting IL-18 epitopes included in IL-18BP binding site. The screening was performed in 3 sequential and selective steps: […]

IL-18 [3] = target: T1, IL-18; assay: KD of monoclonal antibodies by titration with a defined IL-18 molarity (EC50, Law of Mass Action); format: binding
Procedure: The respective KD values of each monoclonal antibody was calculated following titration of the antibodies with a defined IL-18 molarity and derived from the obtained EC50 values with the Law of Mass Action (see above).

- IL-18BP binding on IL-18 previously complexed to monoclonal antibody, Fluorescence intensity (IL-18 [1]): 1 389
- fluorescence signal after binding IL-18 in the presence of IL-18BP [2]: very low fluorescence signal
- Monoclonal antibodies binding on IL-18, Fluorescence intensity (human interleukin-18): 26 250
B1: Antibody 107C6: monoclonal anti-IL-18 antibody; VH SEQ ID NO 9, VK SEQ ID NO 10 (antibody, V domains shown)
VH: QIQLVQSGPELKKPGETVKLSCRASGYTFTNYGMNWVKQAPGKGLKWMGWINTYSGVPTYADDFKGQFAFSLETSAATAFLQINNLKDEDTATYFCAREGYSTTRSMDYWGQGTSVTVSS
VL: DIVMSQSPSSLAVSAGEKVTMSCKSSQSLLDSRTRKNYLVWYQQKPGQSPKLLIYWASTRGSGVPDRFTGSGSGTDFTLTISSVQAEDLAVYYCKQSYNLRTFGGGTKLEIK
modifications: Antibody 107C6 VH variable domain sequence; Antibody 107C6 VK variable domain sequence

- IL-18BP binding on IL-18 previously complexed to monoclonal antibody, Fluorescence intensity (IL-18 [1]): 1 292
- fluorescence signal after binding IL-18 in the presence of IL-18BP [2]: very low fluorescence signal
- Monoclonal antibodies binding on IL-18, Fluorescence intensity (human interleukin-18): 25 126
B2: Antibody 108F8: monoclonal anti-IL-18 antibody; VH SEQ ID NO 11, VK SEQ ID NO 12 (antibody, V domains shown)
VH: B1 VH with E10D, L11S
VL: B1 VL
modifications: Antibody 108F8 VH variable domain sequence; Antibody 108F8 VK variable domain sequence

- fluorescence signal after binding IL-18 in the presence of IL-18BP [2]: very low fluorescence signal
- Monoclonal antibodies binding on IL-18, Fluorescence intensity (human interleukin-18): 25 848
B3: Antibody 109A6: monoclonal anti-IL-18 antibody; VH SEQ ID NO 13, VK SEQ ID NO 14 (antibody, V domains shown)
VH: EVQLQQSGAELVKPGASVKLSCTASGFKIKDTYIHWVIQRPAQGLEWIGRIDPANGNTIYGSKFQGKATLTADTSSNTAYIHLSSLTSGDSAVYYCAGYVWFAYWGQGTLVTVSA
VL: DVVMTQVPLSLPVSLGDQASISCRSSQRLVHSNGNTYLHWFLQKPGQSPKLLIYTVSNRFSGVPDRFSGSGSGTDFTLKISRVEAEDLGVYFCSQSTLVPWTFGGGTKLEIK
modifications: Antibody 109A6 VH variable domain sequence; Antibody 109A6 VK variable domain sequence

- IL-18BP binding on IL-18 previously complexed to monoclonal antibody, Fluorescence intensity (IL-18 [1]): 1 656
- Column #3 Monoclonal antibody binding on IL-18 previously complexed to IL-18BP, Fluorescence intensity ([2]; Luminex beads linked to IL-18BP, complexed to IL-18): 41
- fluorescence signal after binding IL-18 in the presence of IL-18BP [2]: very low fluorescence signal
- Monoclonal antibodies binding on IL-18, Fluorescence intensity (human interleukin-18): 24 838
- Kd (IL-18 [3]; mean of determinations, read-out: KD, Mean): 15 pM
- Kd (IL-18 [3]; single determinations, read-out: KD): 20 pM and 10 pM
B4: Antibody 131B4: monoclonal anti-IL-18 antibody; VH SEQ ID NO 18, 103 or 109, VK SEQ ID NO 19 (antibody, V domains shown)
VH: B3 VH with L4V, V37L, I38K, A42E, L70I, H82Q, S91T, Y95F
VL: DAVLTQTPLSLPVSLGDQASISCTSSQSLVHSNGNTYLHWYLQKPGQSPKLLIYKVSDRFSGVPDRFSGSGSGTDFTLMITRVEAEDLGVYFCSQSSLVPWTFGGGTKLEVK

- IL-18BP binding on IL-18 previously complexed to monoclonal antibody, Fluorescence intensity (IL-18 [1]): 1 488
- fluorescence signal after binding IL-18 in the presence of IL-18BP [2]: very low fluorescence signal
- Monoclonal antibodies binding on IL-18, Fluorescence intensity (human interleukin-18): 23 839
B5: Antibody 132H4: monoclonal anti-IL-18 antibody; VH SEQ ID NO 23, VK SEQ ID NO 24 (antibody, V domains shown)
VH: EVKLVESGGGLVKPGGSLKLSCAASGFTFSNYAMSWVRQNPAKRLEWVATISSGGANIYYPDSVKGRFIISRDNARNTLYLQMSSLRSEDTAMYYCARGDYFNHFWFAYWGQGTLVTVSA
VL: DVLMTQTPLSLPVSLGDQASISCRSSQSIVHSNGNTYLEWYLQKPGQSPKFLIYKVSNRFSGVPDRFSGSGSGTDFTLKINRVEAEDLGIYYCFQGSHVPWTFGGGTKLEIK
modifications: Antibody 132H4 VH variable domain sequence; Antibody 132H4 VK variable domain sequence

Reference: patent publication US12679888B2, “IL-18 binding protein (IL-18BP) and antibodies for treating inflammatory diseases” (AB2 BIO SA, priority 2015, dated 2026)
